Legend:
MCL-1/BIM heterodimer = target: T1, MCL-1/BIM heterodimer (Homo sapiens, UniProt Q07820); test: ELISA: Mcl-1-GST on glutathione-coated plates with or without Bim-BH3 peptide, detected with HSMCB antibody; format: binding; conditions: Mcl-1-GST with or without Bim-BH3 peptide, FIG. 1
T1 construct: mutated to delete their transmembrane domains; made in house; host or cells: E. coli BL21 (D3)
Description: Genes encoding human Mcl-1 were cloned and mutated to delete their transmembrane domains. The mutated genes were then linked to a nucleotide sequence encoding Glutathione-S-transferase (GST) and cloned into pGEX 4T-1 to obtain DNA constructs for expressing Mcl-1(Δ)-GST fusion proteins. DNA constructs for expressing full length human Bim, all fused with GST, were prepared by recombinant technology.
The plates were then washed three times with PBS containing 0.05% TWEEN 20™ (PBST) and blocked with 50 μl PBS containing 2.0% bovine serum albumin (BSA) at room temperature for 1 hour. The plates were then washed again three times with PBST. Afterwards, 100 μl of a hybridoma supernatant was added to designated wells. The plates were incubated at room temperature for 1 hour on a shaker apparatus and then washed three times with wash buffer. Next, 50 μl of HRP-conjugated goat anti-mouse IgG Fc (Cappel Laboratories), diluted 1:1000 in assay buffer (0.5% bovine serum albumin, 0.05% % TWEEN 20™, 0.01% Thimersol in PBS), was added to each well. […] 50 μl of […] was added to each well to stop the reaction and absorbance at 450 nm in each well is read in a microliter plate reader. […]

[1] = tested on: MCF-7 breast cancer cells; test: IHC staining of FFPE MCF-7 cells, wild-type vs BIM siRNA; format: cell-based, human; conditions: BIM-siRNA transfected MCF-7 cells vs wild-type, FIG. 3
Excerpt: (§1) The MCL-1/BIM heterodimer antibody (HSMCB) requires BIM to bind in situ. BIM siRNA was used on both MCF-7 and HCC70 cells (far left, and right middle columns, respectively), and the cells were then formalin-fixed and paraffin embedded into a tissue microarray (TMA) block, sectioned and added to glass slides, and stained with HSMCB. IHC images of the wild-type (WT) staining for both MCF-7 and HCC70 cells are shown in the middle-left, and far right columns, respectively. […] The images across the top panel in FIG. 3 are of an HSMCB antibody having CDRs selected from SEQ ID NO: 9, SEQ ID NO: 10, SEQ ID NO: 11, SEQ ID NO: 12, SEQ ID NO: 13, SEQ ID NO: 14, and having a variable heavy chain selected from SEQ ID NO: 15, and a variable light chain selected from SEQ ID NO: 16; and the images across the bottom panel in FIG. 3 are of an HSMCB antibody having CDRs selected from SEQ ID NO: 1, SEQ ID NO: 2, SEQ ID NO: 3, SEQ ID NO: 4, SEQ ID NO: 5, SEQ ID NO: 6, and having a variable heavy chain selected from SEQ ID NO: 7, and a variable light chain selected from SEQ ID NO: 8.
(§2) The experiments of this example show a set of IHC images relating to the application of the Mcl-1/Bim heterodimer antibody (HSMCB) to formalin-fixed paraffin-embedded (FFPE) specimens from MCF-7 breast cancer cells, and HCC70 triple negative breast cancer cells. […]

[2] = tested on: HCC70 triple negative breast cancer cells; test: IHC staining of FFPE HCC70 cells, wild-type vs BIM siRNA; format: cell-based, human; conditions: for HSMCB IHC signal intensity: BIM-siRNA transfected HCC70 cells vs wild-type, FIG. 3
Excerpt: as §1
In the far left panel. IHC images of the HSMCB antibody are shown for both WT HCC70 cells, and Bim-siRNA transfected HCC70 cells. In the middle panel. IHC images of the HSBXB antibody are shown for both WT HCC70 cells, and Bim-siRNA transfected HCC70 cells. In the far right panel. IHC images are shown of HCC70 cells without application of HSMCB or HSBXB. […] The images in the left column of FIG. 4 are of an HSMCB antibody having CDRs selected from SEQ ID NO: 9, SEQ ID NO: 10, SEQ ID NO: 11, SEQ ID NO: 12, SEQ ID NO: 13, SEQ ID NO: 14, and having a variable heavy chain selected from SEQ ID NO: 15, and a variable light chain selected from SEQ ID NO: 16.
as §2

T1 sequence (Q07820 1-327 limits assumed): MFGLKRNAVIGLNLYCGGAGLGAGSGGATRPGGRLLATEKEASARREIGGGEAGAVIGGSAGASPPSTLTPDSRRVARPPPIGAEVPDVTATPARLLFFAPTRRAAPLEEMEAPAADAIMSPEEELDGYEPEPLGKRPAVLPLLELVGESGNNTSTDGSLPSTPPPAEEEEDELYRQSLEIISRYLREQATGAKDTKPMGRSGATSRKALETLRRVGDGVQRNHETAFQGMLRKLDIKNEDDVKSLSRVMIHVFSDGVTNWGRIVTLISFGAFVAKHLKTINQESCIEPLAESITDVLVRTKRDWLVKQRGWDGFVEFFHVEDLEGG
T1 sequence (O43521 146-166 partner limits assumed): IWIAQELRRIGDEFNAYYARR

| Molecule | selective binding to the MCL-1/BIM heterodimer versus monomer (MCL-1/BIM heterodimer) | HSMCB IHC signal intensity [1] | HSMCB IHC signal intensity [2] | IHC activity ([2]; Bim-siRNA transfected HCC70 cells vs WT, FIG. 4) |
| --- | --- | --- | --- | --- |
| HSMCB (SEQ ID NO: 7, SEQ ID NO: 8): MCL-1/BIM heterodimer antibody, CDRs SEQ ID NO: 1-6, variable heavy chain SEQ ID NO: 7, variable light chain SEQ ID NO: 8 (antibody, V domains shown) VH: MNFGLSLIFLVLVLKGVQCEVQLVESGGDLVKPGGSLKLSCAVSGFTFSSYAMSWVRQTPAKRLEWVATISSGGFATYYPDTVKGRFTISRDNAKNTLYLQMSSLRSEDTAMYYCARHGGGSYGWFAYWGQGTLVTVSE VL: MLSLAPLLSLLLLCVSDSRAETTVTQSPASLSVATGEKVTIRCITSTDIDDDMNWYQQKPGEPPKLLISEGNTLRPGVPSRFSSSGYGTDFVFTIENTLSEDFADYYCLQSDNMPYTFGGGTKLEIK | preferentially react with the heterodimer and not to the monomer | reduced HSMCB IHC signal intensity | reduced HSMCB IHC signal intensity | – |
| HSMCB (SEQ ID NO: 15, SEQ ID NO: 16): MCL-1/BIM heterodimer antibody, CDRs SEQ ID NO: 9-14, variable heavy chain SEQ ID NO: 15, variable light chain SEQ ID NO: 16 (antibody, V domains shown) VH: MDWIWIMLHLLAAATGLQSQVHLQQSGSELRSPGSSVKLSCKDFDSEVFPIAYMSWVRQKPGHGFEWIGDILPSIGRTIYGEKFEDKATLDADTVSNTAYLELNSLTSEDSAIYYCARQDTYYAMDYWGQGTSVTVSS VL: MHFQVQIFSFLLISASVIMSRGQIVLTQSPAIMSASPGEKVTITCSASSSVSYMHWVQQKPGTSPKLWIYSTSNLASGVPARFRGSGSGTSYSLTISRMEAEDAATYYCQQRSSYPYTFGGGTKLEIK | preferentially react with the heterodimer and not to the monomer | reduced HSMCB IHC signal intensity | reduced HSMCB IHC signal intensity | reduced activity |

From patent US20240425583A1, “METHODS AND COMPOSITIONS RELATED TO MCL-1 AND BIM HETERODIMER ANTIBODIES” (priority 2021, published 2024)
